Assay: yeast display, Sf9 membrane polyspecificity reagent, FACS + sequencing; frameworks hold sequencing errors
Outline: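 Nanobodies from a synthetic yeast display library (Saccharomyces cerevisiae BJ5465), induced 36–48 hours with galactose, were stained 1 hour at 4 °C with 10% biotinylated, detergent-solubilized Sf9 membrane reagent, enriched on streptavidin microbeads, then FACS-sorted. Anti-HA (expression) and streptavidin (reagent binding) fluorescence set low and high (top ~1%) gates. Polyreactivity labels come from the gate of origin. Genes were colony-PCR amplified, MiSeq 2 × 250 sequenced and filtered by CDR length.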

Sequence | polyreactivity (PSR sort gate)
QVQLVESGGGLVQAGGSLRLSCAASGSTFQPYTMGWYRQAPGTERELVAAITGRGGSTYYADSVKGRFTISRDNAKNTVYLQMNSLKPEDTAVYYCAAGAYRRNKSDYYYWGQGTQVTVSS | low polyreactivity
QVQLVESGGGLVQAGGSLRLSCAASGSTFQRYAMGWYRQAPGKERELVAAITSGGSTYYADSVKGRFTISRDNAKNTVYLQMNSQKPEDTAVYYCNAAWFYRYGYWGQGTQVTVSS | high polyreactivity
QVQLVESGGGLVQAGGSLRLSCAASGSTFQSNAMGWYRQAPGKERELVAAISSSAGTTFYADSVKGRFTISRDNAKNTVYLQMNSLKPEDTAVYYCAKKDFYFAPSPGYYRSRDYWGQGTQVTVSS | low polyreactivity
QVQLVESGGGLVQAGGSLRLSCAASGSTFQSYAMGWYRQAPGKERELVAAISFSGGSTYYADSVKGRFTNSRDNSKNTVYLQMNSLIPEDTAVYYCAKRGWVYFHGYDYWGQGTQVTVSS | low polyreactivity
QVQLVESGGGLVQAGGSLRLSCAASGSTFQSYAMGWYRQAPGKERELVAGITSGDSTNYADSVKGRFTISRDNAKNTVYLQMNSLKPEDTAVYYCNAVTQARYYYWGQGTQVTVSS | low polyreactivity
QVQLVESGGGLVQAGGSLRLSCAASGSTFQTYAMGWYRQAPGKERELVAAISFNGGSTYYADSVKGRFTISRDNAKNTVYLQMNSLKPEDTAVYYCAVEYTWASALYDGRHDYWGQGTQVTVSS | high polyreactivity
QVQLVESGGGLVQAGGSLRLSCAASGSTFQTYAMGWYRQAPGKERELVAAISRRSGSTYYADSVKGRFTISRDNAKNTVYLQMNSLKPEDTAVYYCAARYVSRRFLGYYYWGQGTQVTVSS | high polyreactivity
QVQLVESGGGLVQAGGSLRLSCAASGSTFQTYVMGWYRQAPGKERELVAAISSGGSTNYADSVKGRFTISRDNAKNTVYLQMNSLKPEDTAVYYCAKRWPYFRRGKDGYWGQGTQVTVSS | low polyreactivity
QVQLVESGGGLVQAGGSLRLSCAASGSTFQVYGMGWYRQAPGKERELVAAISRSGGRTYYADSVKGRFTISRDNAKNTVYLQMNSLKPEDTAVYYCAKTYQTTTSKSGYYYWGQGTQVTVSS | high polyreactivity
QVQLVESGGGLVQAGGSLRLSCAASGSTFQWYAIGWYRQAPGKERELVATISYTGGSRTYYADSVKGRFTISRDNAKNTVYLQMNILKPEDTAVYYCAAESNQLFYFRRFDYWGQGTQVTVSS | low polyreactivity
QVQLVESGGGLVQAGGSLRLSCAASGSTFQYNAMGWYRQAPGKERELVATITWSGGSTYYADSVKGRFTISRDNAKNTVYLQMNSLKPEDTAVYYCAADYYYGYEFGYWGQGTKVTVSS | low polyreactivity
QVQLVESGGGLVQAGGSLRLSCAASGSTFQYNVMGWYRQAPGKERELVATISYSSGRTYYADSVKGRFTISRDNAKNTVYLQMNSLKPEDTAVYYCAAAVRLYFWTSAYKYGYWGQGTQVTVSS | high polyreactivity
QVQLVESGGGLVQAGGSLRLSCAASGSTFQYYAMGWYRPAPGKERELVAAISSGGSTYYADSVMGRFTISRDNAKNTVYLQMNSLKPEDNAVYYCAAYDYDGVYGYCGQGTQVTVSS | high polyreactivity
QVQLVESGGGLVQAGGSLRLSCAASGSTFQYYAMGWYRQAPGKEREFVAAIHWDGGRTYYADSVKGRFTISRDNAKNTVYLQMNSLKPEDTAVYYCAAYTRYKMDYWGQGTQVTVSS | high polyreactivity
QVQLVESGGGLVQAGGSLRLSCAASGSTFQYYAMGWYRQAPGKERELFAVITGAGGTNYADSVKGRFTISRDNAKNTVYLQMNSLKPEDTAVYYCAARSPGTRWGDYDYWGQGTQVTVSS | low polyreactivity
QVQLVESGGGLVQAGGSLRLSCAASGSTFQYYAMGWYRQAPGKERELVAAISAGGTRTYYADSVKGRFTISRDNAKNTVYLQMNSLKPEDPAVYYCNADDLHFVARYDYWGQGTQVTVSS | low polyreactivity
QVQLVESGGGLVQAGGSLRLSCAASGSTFQYYAMGWYRQAPGKERELVAAISYRGSTYYADSVKGRFTISRDNAKNTVYLQMNSLKPEDTAVYYCAAVNRPWYSFGYGYWGQGTQVTVSS | high polyreactivity
QVQLVESGGGLVQAGGSLRLSCAASGSTFQYYAMGWYRQAPGKERELVASITWGGDNTDYADSVKGRFTISRDNAKNTVYLQMNSLKPEDTAVYYCNTVRSNKMDYWGQGTQVTVSS | high polyreactivity
QVQLVESGGGLVQAGGSLRLSCAASGSTFQYYDMGWYRQAPGKERELVASITGSGDSTYYADSVKGRFTISRDNAKNTVYLQMNSLKPEDTAVYYCAAQNTWSGDYDYWGQGTQVTVSS | low polyreactivity
QVQLVESGGGLVQAGGSLRLSCAASGSTFRDNAMGWYRQAPGKERELVAAISRSGARTYYADSVKGRFTISRDNAKNTVYLQMNSLKPEDTAVYYCNAVWRVKYRRGLDYWGQGTQVTVSS | high polyreactivity
QVQLVESGGGLVQAGGSLRLSCAASGSTFRDYAMGWYRQAPGKERELVAAISNSGGRTYYADSVKGRFTISRDNAKNTVYLQMNSLKPEDTAVYYCNAGRQTKWGQGTQVTVSS | high polyreactivity

Sequence | polyreactivity (PSR sort gate)
QVQLVESGGGLVQAGGSLRLSCAASGSTFRDYAMGWYRQAPGKERELVAAITQNGGSTYYADSVKGRFTISRDNAKNSVYLQMNSLKPEDTAVYDCAADSDWFVWQEDYWGQGTQVTVSS | low polyreactivity
QVQLVESGGGLVQAGGSLRLSCAASGSTFREYTMGWYRQAPGKERELVAAITNSGGSTYYADSVKGRFTISRDNAKNTVYLQLNSLKPEDTAVYYCAAEVGIVDYDYWGQGTQVTVSS | low polyreactivity
QVQLVESGGGLVQAGGSLRLSCAASGSTFRFYAMGWYRQAPGKERELVAAITWRSGRTSYADSVKGRFTISRDNAKNTVYLQMNSLKPDDTAVYYCAATSVYRYDYWGQGTLVTVSS | high polyreactivity
QVQLVESGGGLVQAGGSLRLSCAASGSTFRFYAMGWYRQAPGKERELVAGITGSGDSTYYADSVKGRFTISRDNAKNTVYLQMNSLKPEDTAVYYCNKRVVYRSSQFDYWGQGTQVTVSS | low polyreactivity
QVQLVESGGGLVQAGGSLRLSCAASGSTFRFYTMGWYRPAPGKERELVATISRGGSTYADSVKGRFTISRDNAKNTVYLQMYSLKPEDTAVYYCAKRGYSSWPYDYWGQGTQVSVSS | low polyreactivity
QVQLVESGGGLVQAGGSLRLSCAASGSTFRGFAMGWYRQAPGKERELVAAISSRGASTHYADSVKGRFTISRDNANNTVYLQLTSLKPEDTAVYYCNKRQVFVSTGVYEFDYWGQGTQVTVSS | low polyreactivity
QVQLVESGGGLVQAGGSLRLSCAASGSTFRGNAMGWYRQAPGKERELVAAITGRGGRTYYADSVKGRFTISRDNAKNTVYLQMNSLKPEDTAVYYCAAYSRYKPYGITAYDYWGQGTQVTVSS | high polyreactivity
QVQLVESGGGLVQAGGSLRLSCAASGSTFRGNAMGWYRQAPGKERELVASITGGGSTNYADSVKGRFTISRDNAKNTVYLQMNSLKPEDTAVYYCAADWGADFYGGQGTQVTVSS | low polyreactivity
QVQLVESGGGLVQAGGSLRLSCAASGSTFRGYAMGWYRQAPGKERELVAAITRGGSTYYADSVKGRFTISRDNAKNTVYLQMNSLKPEDTAVYYFYDYWGQGTQVTVSS | low polyreactivity
QVQLVESGGGLVQAGGSLRLSCAASGSTFRGYAMGWYRQAPGKERELVAAITRSGGSTYYADSVKGRFTISRDNAKNTVYLQMNSLKPEDTAVYYCNDRAFPYYRRFDYWGQGTQVTVSS | high polyreactivity
QVQLVESGGGLVQAGGSLRLSCAASGSTFRGYAMGWYRQAPGKERELVAAITYISDSTYYADSVKGRFTLSRDNAKNTVYLQMNSLKPEDTAVYYCNAYYDGDWRYTSQETGDHWGQGTQVTVSS | low polyreactivity
QVQLVESGGGLVQAGGSLRLSCAASGSTFRGYAMGWYRQAPGKERELVASISWNGTSTYYADSVKGRFTISRDNAKNTVYLQMNSLKPEDTAVYYCNVRFNYRGTYDYWGQGTQVTVSS | low polyreactivity
QVQLVESGGGLVQAGGSLRLSCAASGSTFRGYDMGWYRQAPGKERELVAAITTSGGTTYYADSVKGRFTISRDNAKNTVYLQMNSLKPEDTAVYYCAARYPRAGVPRRPTAYVRYGYWGQGTQVTVSS | high polyreactivity
QVQLVESGGGLVQAGGSLRLSCAASGSTFRGYVMGWYRQAPGKERELVAAISSGGRTYYADSVKGRFTISRDNAKNTVYLQMNSLKPEDTAVYYCNSNGRDVYYNWAYDYWGQGTQVTVSS | high polyreactivity
QVQLVESGGGLVQAGGSLRLSCAASGSTFRHNAMGWYRQGPGKERELVATIRTSGGTTYYADSVKGRFTISRDNAKNTVYLQMNSLKPEDTAVYYCAAVSYLFLYQGYPIAYPMYYWGQGTQVTVSS | low polyreactivity
QVQLVESGGGLVQAGGSLRLSCAASGSTFRINAMGWYRQAPGKERELVADINSGGNTTYADSVKGRFTISRDNAKNTVYFQMNSLKPEDTAVYYCAAAPVFDLWVFLLDYGYDYWGQGTQVTVSS | low polyreactivity
QVQLVESGGGLVQAGGSLRLSCAASGSTFRINAMGWYRQAPGKERELVADINSGGNTTYADSVKGRFTISRDNAKNTVYLQMNSLKPEDTAVYYCAADPVFDLWEFLLDYGYDYWGQGTQVTVSS | low polyreactivity
QVQLVESGGGLVQAGGSLRLSCAASGSTFRIYAMGLYRQAPGKERELVAAIRRSGGSTYYADSVKGRFTISRDNAKNTVYLQMNSLKPEDTAVYYCAADLYYQAPGYQDRYRHSRYEYWGQGTQVTVSS | high polyreactivity
QVQLVESGGGLVQAGGSLRLSCAASGSTFRKDAMGWYRQAPGKERELVAAISSSGGDTYYADSVKGRFTISRDNAKNTVYLQMNSLKPEDTAVYYCNTKRPYRVYFRYGYWGQGTQVTVSS | high polyreactivity
QVQLVESGGGLVQAGGSLRLSCAASGSTFRKNAMGWYRQAPGKERELVAAITYSGGGTYYADSVKGRFTISRDNAKNTVYLQMNSLKPEDTAVYYCAAERNKYAPYYYWGQGTQVTVSS | high polyreactivity

Reference: the nanobody polyreactivity screen of Harvey et al. (2022)
